According to publication PMC5976746:

Columns and labels:
[1] = target: BG505 NFL (native flexibly linked) HIV-1 envelope glycoprotein trimer from 293F cells (HIV-1); assay: SEC; Superdex 200 (S200) after lectin-affinity column; UV absorbance at 280 nm
[2] = target: BG505 NFL (native flexibly linked) HIV-1 envelope glycoprotein trimer from CHO-M cells (HIV-1); assay: negative-stain electron microscopy; peak SEC fraction from pool Z; 2% uranyl formate, 2D class averages
[3] = target: BG505 NFL (native flexibly linked) HIV-1 envelope glycoprotein trimer from CHO-M cells (HIV-1); assay: SEC; Superdex 200 (S200) after lectin-affinity column; UV absorbance at 280 nm
[4] = target: BG505 NFL (native flexibly linked) HIV-1 envelope glycoprotein trimer from CHO-M cells (HIV-1); assay: native gel or EMSA; blue-native PAGE of SEC fractions (F4-F9) of lectin-purified pool Z supernatant

Row | Substance | stoichiometry N [1] | stoichiometry N [2] | stoichiometry N [3] | stoichiometry N [4]
1 | BG505 NFL (native flexibly linked) HIV-1 envelope glycoprotein trimer from 293F cells | 3 |  |  | 
2 | BG505 NFL (native flexibly linked) HIV-1 envelope glycoprotein trimer from CHO-M cells |  | 3 | 3 | 3
